The results in this text go back to patent publication US20240294624A1, “ANTI-ERYTHROPOIETIN ANTIBODY” (ANDREMACON S.R.L., priority 2021, published 2024).

One data set concerns primary GSCs. The experiment in a line: MTT cell viability assay. The data set is classed as cell-based, human. The conditions noted are these: 96 hours, anti-EPO (C4) 6 μg/ml, TMZ 100 μM, FTY720 100 nM. An excerpt: A. Primary glioblastoma cancer stem cells (GCSc).
(In general: Tetrazolium dyes change colour on reduction, which living cells bring about.)

A further data set relates to A549. Nature of the data set: MTT cell viability assay. The conditions noted are these: 96 hours, 6 μg/ml. It counts as cell-based, human. An excerpt:
J. Lung carcinoma cell line (A549): human lung cancer cells used for drug efficacy screening, biochemical mechanisms and alveolar differentiation;

A further data set has as its system PC-3. Nature of the data set: MTT cell viability assay. The conditions noted are these: 96 hours, 6 μg/ml. It counts as cell-based, human. The source says: (§1) F. Prostate cancer cell lines (PC-3 and LNCAP); human prostate cancer cells used in cancer research and drug development. […] have been reported to be overexpressed and associated with poor prognosis and reduced survival in prostate cancer patients, and are considered predictive markers of aggressive prostate cancer behavior.

A further data set relates to LNCAP. The experiment in a line: MTT cell viability assay. The data set is classed as cell-based, human. The conditions noted are these: 96 hours, 6 μg/ml.
Description: as §1

Data set [1] has as its system human tumor GSC-derived xenograft. The experiment in a line: Gene expression of GSC-derived xenograft after in vivo treatment. The conditions noted are these: xenograft GSCs; RealTime PCR. The arrangement: species or system mice. The procedure: The analysis was performed by the assessment of gene expression profile on human tumor GSC-derived xenograft. Gene expression analysis were conducted by Real-Time PCR, run in triplicate, using 18S as endogenous control. Samples have been normalized to untreated CTRL. The analysis was conducted on genes related to FIG. 30A apoptosis, FIG. 30B inflammation, FIG. 30C proliferation.
Tissues were processed and total RNA was extracted following TRI-Reagent protocol and quantified with NanoDrop 1000 Spectro-photometer (Thermo Fisher Scientific). Reverse transcriptase reaction was executed using TranScriba Kit (A&A Biotechnology), loading 1 μg of RNA (A260/A280>1.8), according to manufacturer's instructions. qRT-PCR was performed using StepOnePlus™ (Thermo Fisher Scientific), 1 μg of cDNA, forward and reverse human primers (250 nM each) Titan HotTaq EvaGreen® qPCR Mix (Bioatlas). Data were normalized to 18S expression, used as endogenous control. Relative gene expression was determined using the 2-ΔΔCt method (FIG. 30).

Data set [2] is described as follows: Tissue distribution by SPR (tumor, liver, kidney). It counts as in vivo, mice. The procedure:
Tumor tissues were analyzed after their homogenization in TBST (1 g/2 mL) with an Precellys ysing Kit tubes, ultracentrifugation for 1 h at 110000 g and 1:2 dilution of the supernatant into optimized TBST buffer.
The pharmacokinetic (PK) profile of anti-EPO (C4) was assessed after single i.v. injection in mice models for glioblastoma. In particular, the antibody concentrations were measured at different time points after treatment (from 6 hours to 1 week) in:
1) plasma, to determine the main PK parameters (mainly half-time of elimination and volume of distribution); 2) tumor, to assess the antibody presence in the target tissue; 3) in kidney and liver to evaluate the elimination route.
When tumor masses reached about 500 mg, animals were treated i.v. with 10 mg/kg of anti-EPO (C4) antibody. Blood samples were collected from the retroorbital plexus under isoflurane anesthesia at 4, 24, 48, 72, 120, and 168 h from treatment (FIG. 26B). Mice were sacrificed by cervical dislocation. Tumors were collected. To obtain plasma, blood samples were centrifuged at 4000 rpm for 10 min at 4° C. All samples were immediately frozen in dry ice and then stored at −20° C. until analysis. Four mice were used at each time point.

A further data set deals with S-ECs. The experiment in a line: Tube formation assay on Matrigel. The conditions noted are these: 48 h. It counts as cell-based, human. The protocol:
S-ECs (1×10^4) were plated on 10 μL of Matrigel in BM, as a Control Condition (CTR, FIG. 19A) or in media containing the anti-EPO (C4) (FIG. 19B), FTY720 (FIG. 19C), and anti-EPO (C4)+FTY720 (FIG. 19D) treatments, as reported above. S-ECs were incubated at 37° C., 5% C02, 5% 02. After 48 h, tube-like structure formation was evaluated by phase-contrast microscopy. […] Data are expressed as the mean±standard deviation of at least 3 experiments in triplicate. * P<0.05 versus CTR for treatments tested.

Another data set has as its system N9 microglia cells. Nature of the data set: Microglia viability, trypan blue. The conditions noted are these: 48 hours of culture. The data set is classed as cell-based, murine. The protocol:
N9 cells were cultured in Iscove's Modified Dulbecco's MEM, IMDM containing streptomycin/1× penicillin and 2 mM L-glutamine, supplemented with FBS (fetal bovine serum) at 5%. The cells were plated at a concentration of 1.5×10^4 cells/cm2 and kept in a thermostatic incubator at 37° C., with 5% CO2, for 24 hours. The next day, the cells were exposed to different treatments for 48 hours. At the end of the treatments, cell viability was assessed by staining with trypan blue. The microglia was maintained in a basal culture medium and then activated with lipopolysaccharide (LPS), a molecule present on the membrane of the Gram-negative bacteria. Furthermore, to study the role of the product “anti-EPO (C4)” in the inhibition of neuroinflammation and then in the inhibition of the activation of microglia, the antibody according to the scheme below was administered, in association and not with LPS, to activate microglia. […]
N9 cells were cultured in Iscove's Modified Dulbecco's MEM, IMDM containing streptomycin/1× penicillin and 2 mM L-glutamine, supplemented with FBS (fetal bovine serum) at 5%. […] At the end of the treatments, cell viability and proliferation were assessed by staining with trypan blue and observed under the microscope for counting. […]

B1: anti-EPO (C4): isolated anti-Erythropoietin monoclonal antibody, VL SEQ ID NO:6, VH SEQ ID NO:14, hybridoma DSM ACC 3370 (antibody, listed as Homo sapiens, V domains shown)
VH: EVKLQESGGGLVQPGGSLKLSCAASGFTFSTYTMSWVRQTPEKRLEWVAYISNGGDRTYYPDTVKGRFTISRDDAKNTLFLQMSSLKSEDTAMYYCARHNITTVPFTMDYWGQGTSVTVSS
VL: DIVLTQSPASLAVSLGQRATISCRASESVDYYGTGLMQWYQQRPGQPPKLLIYGASNVGSGVPARFSGSGSGTDFSLNIHPVEGDDIAMYFCQQTRKVPSTFGGGTKLEIK
modifications: VH amino acid sequence; VL amino acid sequence
Take B1: in the data set with primary GSCs, the “cells initially seeded dead” value was “about 73%”. Further, the “cells initially plated dead” value is given as 63% with A549, 71% in the data set with PC-3 and 74% in the data set on LNCAP. The “gene expression on tumoral cells after in vivo treatment” value in data set [1] was “induced inhibition cancer stem cell proliferation, increase apoptosis and inflammation”. Moreover, in data set [2] (i.v. 10 mg/Kg, SPR), the “antibody distribution tumor vs kidney and liver” value was “higher levels of antibody in the tumoral tissues respect to kidney and liver”. Moreover, in data set [2] (tumor, i.v. 10 mg/kg), the “antibody levels in tumor tissues, PK profile” value was “levels were measurable, with a bell-shaped PK profile”. The “decrease of total length of formed tubes” value in the data set on S-ECs is 65%. Also, the “formation of tubular-like structures” value in the data set on S-ECs is on record as “able to block the formation of tubular-like structures”. Also, in the data set on N9 microglia cells, the viability entry was “higher than 85%”.
